{"source": "patent US7387779B2", "about": "“Anti-angiogenic proteins and fragments and methods of use thereof” (Beth Israel Deaconess Medical Center, priority 1998, dated 2008)", "key": {"C-PAE cells [1]": {"tested_on": "C-PAE cells", "assay": "Cell cycle analysis (propidium iodide, flow cytometry)", "format": "cell-based, bovine", "settings": "for percentage of cells in G0/G1 phase: bFGF control 53.4%; for G1 (cell cycle arrest assay): Table 4", "experimental": "To further evaluate the mechanism of T3 peptide on endothelial cell proliferation, the effect of T3 peptide on cell cycle progression was analyzed. In the growth arrested and contact inhibited cells (0 hour), 4.1% of cells were in S phase. […] This was true even at a maximal dosage of 100 μg/ml. The effect of the T3 peptide was dose-dependent, however, with the percentage of cells in S phase at 21.4% at 10 μg/ml, and 20.5% at 25 μg/ml. The percentage of cells in G0/G1 phase was 88.3% at 0 hour, 53.4% for the bFGF control, and 57.6%, 57.6% and 71.0% for treatments with T1, T6 and T3 peptide, respectively. […] Apoptotic Activity: Peptides T2, T3, T4, T5 and T6 (10 μg/ml concentration) were tested for their effect of viability of C-PAE cells using the MTT assay, as described in Examples 32 and 36 above. The results are shown in FIG. 43D, which is a histogram showing cell viability as measured at OD595 (y-axis), and treatments with the synthetic peptides (x-axis). […] TNF-α (100 ng/ml) was used to serve as a positive control in inducing endothelial cell apoptosis.\nThe effect of Tumstatin-44-131 and Tum-5-125-C-A on the cell cycle were assayed similarly to Example 4 above. Briefly, C-PAE cells were growth arrested by contact inhibition for 48 hours. The cells, at 10^5 cells per well, were then harvested and plated into a 12-well plate coated with fibronectin in 5% FCS and either recombinant Tumstatin-44-131 or Tum-5-125-C-A. After 21 hours, the cells were harvested and fixed in 70% ice-cold ethanol. The fixed cells were rehydrated a room temperature for 30 minutes in PBS containing 2% FCS and 0.1% Tween-20, centrifuged and resuspended in 0.5 ml of the same buffer. RNase (5 μg/ml) digestion was done at 37° C. for one hour, followed by staining with propidium iodide (5 μg/ml). The cells were then counted using an EPICS XL-MCL flow cytometer (Beckman-Coulter Instruments, Fullerton, Calif., USA)."}, "PC-3 cells": {"tested_on": "PC-3 cells", "assay": "Annexin V-FITC apoptosis assay", "format": "cell-based, human", "experimental": "Annexin V-FITC Labeling. In order to establish apoptosis as the potential mode of action for Canstatin, Annexin V-FITC was used to label externalized phosphatidylserine (PS), to assess apoptotic cells. 0.5×10^6 C-PAE cells, PC-3, 786-O and HEK 293 cells were added to each well of a 6 well tissue culture plate in 10% FBS supplemented DMEM (BioWhittaker, Walkersville, Md., USA) overnight. The next day, fresh medium was added to all wells together with 40 ng/ml TNF-α (positive control) or 15 μg/ml Canstatin. Control cells received an equal volume of PBS. After 24 hours of treatment, medium containing detached cells was collected and attached cells were trypsinized and combined with detached cells and centrifuged at 3,000×g. Cells were then washed and phosphatidyl-serine externalization (an early apoptotic indicator) was measured by labeling with FITC-labeled annexin V (Clontech, Palo Alto, Calif., USA) according to the manufacturer's instructions. Annexin V-FITC-labeled cells were counted using a FAC Star Plus flow cytometer (Becton-Dickenson, Waltham, Mass., USA). For each treatment 15,000 cells were counted and stored in listmode. […] Annexin V-FITC labeled cells were counted using a FACStar Plus flow cytometer (Becton-Dickinson, Waltham, Mass., USA). For each treatment, 15,000 cells were counted and stored in listmode."}, "C-PAE cells [2]": {"tested_on": "C-PAE cells", "assay": "Competitive proliferation assay with anti-Tum-4 antibody", "format": "cell-based, bovine", "settings": "1.5 μg/ml", "experimental": "To determine if Turn-1 's inhibition of endothelial cell proliferation could be nullified by anti-Tum-4 antibody, a competitive proliferation assay was performed as described in Example 26, above. Tum-1 was preincubated with anti-Tum-4 antibody for the purpose of at least partially blocking the αvβ3 integrin binding site. It was then used in endothelial cell proliferation assays.\nThe results are shown in FIGS. 38A and 38B, which are histograms showing proliferation of C-PAE cells (y-axis) treated with 1.5 μg/ml Tum-1 (FIG. 38A) or Tum-2 (FIG. 38B) that had been preincubated with anti-Tum-4 antibody (1:100, 1:200, 1:500 dilution) (x-axis). Each column represents the mean ±the standard error of the mean for triplicate wells. The experiments were repeated three times. Asterisks indicate P<0.05 by one-tailed Student's t-test."}, "C-PAE cells [3]": {"tested_on": "C-PAE cells", "assay": "BrdU incorporation proliferation assay", "format": "cell-based, bovine", "settings": "0-2.0 μM", "experimental": "The anti-proliferative affect of Tumstatin-44-131 on C-PAE cells was examined via BrdU incorporation assay. This assay uses bromodeoxyuridine (BrdU) instead of ^3H-thymidine as a thymidine analog. BrdU is incorporated into newly synthesized DNA strands in actively proliferating cells. The BrdU incorporated into the cells can then be detected immunochemically. The assay was conducted using the BrdU proliferation assay kit (CalbioChem, San Diego, Calif., USA) according to the manufacturer's instructions, with some modifications. C-PAE cells were seeded onto 96-well plates in DMEM containing 10% FCS. The next day, the medium was replaced with DMEM containing 2% FCS with or without E. Coli-expressed Tumstatin-44-131, or full-length Tumstatin expressed in 293 cells. The plates were then incubated for 46 hours, and the cells were then pulsed for two hours with 10 nM BrdU. The cells and DNA were then fixed to the wells, reacted with anti-BrdU primary and secondary antibodies, and then developed with a calorimetric reaction supplied with the kit. The plates were then read at OD450 on a plate reader (Molecular Dynamics, Sunnyvale, Calif., USA)."}}, "data": [{"molecule": "LQRFTTMPFLFCNVNDVCNF [T3]", "values": [{"measurement": "percentage of cells in S phase", "setting": "C-PAE cells [1]; bFGF 24 hours (control 22.1%), 50 μg/ml", "value": 13.8, "unit": "%"}, {"measurement": "percentage of cells in S phase", "setting": "C-PAE cells [1]; bFGF 24 hours, 10 μg/ml", "value": 21.4, "unit": "%"}, {"measurement": "percentage of cells in S phase", "setting": "C-PAE cells [1]; bFGF 24 hours, 25 μg/ml", "value": 20.5, "unit": "%"}, {"measurement": "percentage of cells in G0/G1 phase", "setting": "C-PAE cells [1]", "value": 71.0, "unit": "%"}]}, {"molecule": "GLKGKRGDSGSPATWTTRGF [T1]", "values": [{"measurement": "percentage of cells in S phase", "setting": "C-PAE cells [1]; bFGF 24 hours (control 22.1%), T1 or T6, maximal dosage of 100 μg/ml", "value": 22.3, "unit": "%"}, {"measurement": "percentage of cells in G0/G1 phase", "setting": "C-PAE cells [1]", "value": 57.6, "unit": "%"}]}, {"molecule": "Canstatin: NC1 domain of the α2 chain of Type IV collagen (SEQ ID NO:6) (protein, listed as Homo sapiens) VSIGYLLVKHSQTDQEPMCPVGMNKLWSGYSLLYFEGQEKAHNQDLGLAGSCLARFSTMPFLYCNPGDVCYYASRNDKSYWLSTTAPLPMMPVAEDEIKPYISRCSVCEAPAIAIAVHSQDVSIPHCPAGWRSLWIGYSFLMHTAAGDEGGGQSLVSPGSCLEDFRATPFIECNGGRGTCHYYANKYSFWLTTIPEQSFQGSPSADTLKAGLIRTHISRCQVCMKNL", "values": [{"measurement": "apoptosis of PC-3 cells", "setting": "PC-3 cells", "value": "no significant effect"}]}, {"molecule": "Tum-2: residues 1 to 132 of Tumstatin (SEQ ID NO:23) (protein, Tum-2 (amino acids 1-132 of SEQ ID NO10)) GLKGKRGDSGSPATWTTRGFVFTRHSQTTAIPSCPEGTVPLYSGFSFLFVQGNQRAHGQDLGTLGSCLQRFTTMPFLFCNVNDVCNFASRNDYSYWLSTPALMPMNMAPITGRALEPYISRCTVCEGPAIAI", "values": [{"measurement": "anti-proliferative effect after pre-incubation with anti-Tum-4 antibody", "setting": "C-PAE cells [2]", "value": "not affected"}]}, {"molecule": "Tumstatin-44-131: residues 44 to 131 of full-length Tumstatin (SEQ ID NO:33) (protein, Tumstatin-45-132 (amino acids 45-132 of SEQ ID NO10)) FSFLFVQGNQRAHGQDLGTLGSCLQRFTTMPFLFCNVNDVCNFASRNDYSYWLSTPALMPMNMAPITGRALEPYISRCTVCEGPAIAI", "values": [{"measurement": "percentage of cells in S phase", "setting": "C-PAE cells [1]; 5% FCS 21 hours (control 21.5%), dose not given", "value": 6.0, "unit": "%"}, {"measurement": "percentage of cells in S phase", "setting": "C-PAE cells [1]; 5% FCS 21 hours, 1 μg/ml", "value": 19.3, "unit": "%"}, {"measurement": "percentage of cells in S phase", "setting": "C-PAE cells [1]; 5% FCS 21 hours, 10 μg/ml", "value": 11.3, "unit": "%"}, {"measurement": "G1 (cell cycle arrest assay)", "setting": "C-PAE cells [1]", "value": "<5", "unit": "µg"}, {"measurement": "incorporation of BrdU", "setting": "C-PAE cells [3]", "value": "decreased incorporation of BrdU"}]}, {"molecule": "Tum-1: residues 54 to 244 of Tumstatin, lacking the N-terminal 53 amino acids (SEQ ID NO:22) (protein, Tum-1 (Tumstatin N-53) (amino acids 54-244 of SEQ ID NO10)) QRAHGQDLGTLGSCLQRFTTMPFLFCNVNDVCNFASRNDYSYWLSTPALMPMNMAPITGRALEPYISRCTVCEGPAIAIAVHSQTTDIPPCPHGWISLWKGFSFIMFTSAGSEGTGQALASPGSCLEEFRASPFLECHGRGTCNYYSNSYSFWLASLNPERMFRKPIPSTVKAGELEKIISRCQVCMKKRH", "values": [{"measurement": "G1 (cell cycle arrest assay)", "setting": "C-PAE cells [1]", "value": 5, "unit": "µg"}, {"measurement": "anti-proliferative effect after pre-incubation with anti-Tum-4 antibody", "setting": "C-PAE cells [2]", "value": "not altered"}]}, {"molecule": "Tumstatin: NC1 domain of the α3 chain of type IV collagen, residues 1-244 (SEQ ID NO:10) (protein, listed as Homo sapiens) GLKGKRGDSGSPATWTTRGFVFTRHSQTTAIPSCPEGTVPLYSGFSFLFVQGNQRAHGQDLGTLGSCLQRFTTMPFLFCNVNDVCNFASRNDYSYWLSTPALMPMNMAPITGRALEPYISRCTVCEGPAIAIAVHSQTTDIPPCPHGWISLWKGFSFIMFTSAGSEGTGQALASPGSCLEEFRASPFLECHGRGTCNYYSNSYSFWLASLNPERMFRKPIPSTVKAGELEKIISRCQVCMKKRH", "values": [{"measurement": "G1 (cell cycle arrest assay)", "setting": "C-PAE cells [1]", "value": 10, "unit": "µg"}, {"measurement": "incorporation of BrdU", "setting": "C-PAE cells [3]", "value": "decreased incorporation of BrdU"}, {"measurement": "apoptosis of PC-3 cells", "setting": "PC-3 cells", "value": "not observed"}]}]}
